Measurements taken from a protein production outcome set (Wang et al. 2014).

Assay: label from the status in PepcDB records

| Sequence | protein production |
| --- | --- |
| MMRHSSLRLIIGGLILLLFVLNVFSKEQGSHSHKRSHSAKRFSRDSNSARERRPNIILILTDDQDVELGSLNFMPRTLRLLRDGGAEFRHAYTTTPMCCPARSSLLTGMYVHNHMVFTNNDNCSSPQWQATHETRSYATYLSNAGYRTGYFGKYLNKYNGSYIPPGWREWGGLIMNSKYYNYSINLNGQKIKHGFDYAKDYYPDLIANDSIAFLRSSKQQNQRKPVLLTMSFPAPHGPEDSAPQYSHLFFNVTTHHTPSYDHAPNPDKQWILRVTEPMQPVHKRFTNLLMTKRLQTLQSVDVAVERVYNELKELGELDNTYIVYTSDHGYHLGQFGLIKGKSFPFEFDVRVPFLIRGPGIQASKVVNEIVLNVDLAPTFLDMGGVPTPQHMDGRSILPLLLSRNRAVRDNWPDSFLIESSGRRETAEQIAESRARLQIERRNMKLANSSLLEDFLEGAGESTTIVSSSSTAATLMSSTAQQPEDGEEEVETDNEEDDVDGDGAMDSSAAALEEDDLDDAAFEEGDEELDQEFQQNNDLPLAPYITKMMRLNSECSDPALLKNCLPGQKWKCVNEEGRWRKHKCKFHLQLEHQLAAMPRKQYQRNCACFTPDGVVYTKIRAPSAGLHRVNKRTHNGPGRRRNKREVFHTELPDEMEELLDLHQVVDQLVDHTHRSKRDLPASSNETIAQVIQQIQSTLEILELKFNEHELHASNSSGNSYERGEKYTKSGGHRCFVDATTAKVNCSNVIYDDEKTWRTSRTQIDMLIKLLKDKIGKLKEMKKQLRESNKQALAAGRRNDNRRRNDQSVLDSGAGPEFNMSYFTEISSTPRSNVVGQTEVFQGYGSASAFDSLEQTQSHRFTPRAECYCEPDVGENHADSKEMAREARRKLKEERQRKKERKRIKKARLEKECLSEKMNCFSHDNQHWRTAPLWNDSPFCFCMNANNNTYSCLRTINGTHNFLYCEFTTGLITFYNLTIDRFETINRAAGLTPGERSHMHDALDQLKSCRGRSCSIRRHQNHLEGGSSAPLLPINQVHRNNKRKHSPLAGAVGNYAFVGPRLDMEALPPIKRRKLSKYNRLTGSQQSHMKRRPWKQTPLQQSPRFLRTHSVTPAQA | failed |
| SARHFGMALAPWDVMGGGRFQSKKAMEERRKNGEGIRSFVGASEQTDAEIKISEALAKIAEEHGTESVTAIAIAYVRSKAKNFFPSVEGGKIEDLKENIKALSIDLTPDNIKYLESIVPFDIGFPNNFIVLNSLTQKYGTNNV | not failed |
| MKGNCLLKEYQVTMSDDAKADLLSIYHYVRDELCAPQAADDLLERLSQGMLSLSIFPERCAIIEDLIGKGYTFRQLIVKKYRIVYHVLEDEVIIVAVVYGSRHMNNWLEHHHHHH | failed |
| MIRTAKLALVAAALSTTALSPLALAAPAPAQPAATASIAVPPIVYQQRVLANGMKVFTSRDTSTPNVSVQVWYGVGSKDDPQGRSGFAHLFEHLMFKATRNMPNETVDRLTEDVGGFNNASTWDDFTNYYEVVPANHLERLIWAEADRLKSLVIDEAVFASERDVVKEELRQRVLADPYGRFFALSIPQQSFAVHPYQRPGIGSIEELDAATVDDVRAFHRTYYRPDNAALIIVGNFDQTKLDAMIDKYFGSLTTPAGAIPKVTAVEPARTGPKTVNTYGPNVPLPALAITWLAPAAADKDAPALAVLDAILTAGKSSRLYDSLVYDQKIAQSVFSSAPNNAQPGLFYVGAIMAGGKTVAQGEAALRAQVARVRDGLVTPAELAEAKAGLLADAVRRREEIDGRGFAIGYALQTEGDAAAANSSLAKLQAVTAADIQRVARQYLADDRRTVINYLPEKDRPAGEKDATPPIPKVASVKYDGPITTLAPEAEREKPPAVAAPVPAVMPTPAEKTLANGLRVIVAKSSELPLITSTLTVKGGASSDPAGLAGTSSLTSELLTEGTATRSATQVARETEALGANLAAGSGWEAASLTLSVTANNADPAMAIMADVAQNPAFKTEELDRVRAETLDGLSVAFQRPGSLASFATSPVLYAGSAYGHVAGGTPGSLPKIKREDLAKTHAAYWRPDNAVLVVTGNLSPEAGFALAEKAFGGWKKPATPPPAPPAAPTGYQPRNVVIDLPGTGQAAVVLAKPAITRADPSYYQGVVANTVLGVGFSSRLNQEIRIKRGLSYGAGSSLTPQGQFGGFSARVQTKNPSAGEVISLTRAELSRLANEPASVGELAARKSVLVGGFGRDLGTSEGLAGILGNLAVYGVPLTEIQSYAAKVEAVTPEQVQAFAKAKLDPTQMSVIVAGDAKAMGEALAKVAPNATVIPAAKLDLDAPGLTQ | failed |
| MERSALVTGGASGLGRAAALALKARGYRVVVLDLRREGEDLIYVEGDVTREEDVRRAVARAQEEAPLFAVVSAAGVGLAEKILGKEGPHGLESFRRVLEVNLLGTFNVLRLAAWAMRENPPDAEGQRGVIVNTASVAAFEGQIGQAAYAASKGGVVALTLPAARELAGWGIRVVTVAPGLFDTPLLQGLPEKAKASLAAQVPFPPRLGRPEEYAALVLHILENPMLNGEVVRLDGALRMAPR | not failed |
| YCVRGEKLVLFVTGVCPRNCFYCPLSPWRRKDVAYANERPIRKIEDIIEEAKIQEARGAGVTGGDPLARLNRTVEYIRTLKEEFGKKFHIHLYTTGILADKRALSMLYDAGL | failed |
| MPDGDFITLDRVEKVFDVRRKTGFLRSERRRVRAVDSLSFTVARGEMVGYIGPNGAGKSTTIKMLTGILTPSGGRLRVAGIDPSRERTRLAARIGVVFGQRTTLWWDLPLIDSYRLMHRMYRIPDGRYRENLDRCVELLELGDLLDVPVRQLSLGQRMRGDIAAALLHDPEVLYLDEPTIGLDVISKARVREFLRELNAERGTTVLLTTHDLQDIEQLCGRVMVIDHGRLMYDGPLAGLHEVGDSERTLVVDLARELPPIEAAPARVVKVEGPRQWLAFPASESAAPLVARIAAAYPLVDLSVREPDIEAVIAKMLQSMGDTPQPPPEQAEHVVSLEHHHHHH | not failed |
| SKEVRGTLKVSAPRDIGKQHIAPILAAFTEQYPEVVPYLYLNDNISNLAESGLDVVIRYGELADSSLISRKLATSRRVLCASPAYLARKGIPKTPQDLAQHDCLAMVRSNEEMKTWHFQENEQHKVITVVPKSFADDGEVIR | failed |
| MERLSPVFATSKSSNMEVEHWMTSLKEVEKVLDSVEPKLTSSGTKWRVVAQHIKDICSDLNQIFNKEDPRYEVVQAGASAAHDFDVRYLDIHKVRTPHEPLEMRHSKGRKHGREIARLLEKIQKYRQEIEEIKKEYKETDKYRERYDHYKVKLDNLEKKNKDQERIERNQQKFKDAEAAYSSVCADLIQKMETVWKKHVSIFAEAASAVWSTQLQYAKALEAAANPIVPYLQQEEQEEEEEEEAASGTQGRVAEKAYHTNEEKVENSFQKNSAIPPSFRTASEQLTEQSKNINNAKNTSETSPAEDIEA | not failed |
| MAEAGDENLYAAARDIARALGKDPSAAGDILQILSGYGASGNRGGDPRPTPSRGGSNVNFDRALTSLERQISSYIVEDRPIWSDPVDSRTFLDSVDELLAIAGDLRSMAGDKSVAVCQSRADELIQQVMFRLQEEFGFVMDRAPDSFDSDDEFPGEEDNDTSDGVIVARPITDYKIVIEALQSSVIGDLNAIAVRMVAGGFAKECSRVYSSRRREFLEESLSRLHLRGLSMEEVQESPWQDLEDEIDRWIKAVTLIFHVFFPSERLLCDRVFSDLPVSSVTDLSFMEVCRGTTTQLLNFADAIALGSRLPERLFKVVDLYEAMQDLIPKMETLFSDRYCSPLRHEALAIHKRLGEAIRGIFMELENLIRRDPPKTAFPGGGIHPITRYVMNYLRAACKSRQSLEQILDQTGNETGSDTRPLSVQIIWVLELLESNLEGKKRTYRDPSLCFLFMMNNDKYILDKAKDNELGLVLGEDWIVKHAAKLRQYHSNYRRSSWNQVVGLLRTDGPYPKLVENLRLFKSQFDEVCKVQSQWVVSDGQLREELRSSVAGIVSPAYSNFIRRLKESPEINGRRGEPFIPYTVEDVEFIIKRLFKESSS | not failed |
| MTQKNVITEVFDIVFIFVLAFACVVIPTVLQGAVLVSWEEGGAGIGFVWDPVGFFSFLLVIVAFFAVILYHSVKHYRY | failed |
| SLDLDLQRRVYDIISKAVEGNSAEAGHVIVMESKTGRILSMVTTRNWNDLIGGYIEPGSTIKPLVYAIALETHSASPDFTVECEGSIKPVEQLPVIIRDIEKHGLVDFSAGIVKSCNVMSVKVGELITEKTGVEGFYEWLRKVGFGEKTGIEMEGEIAGVLREPKKWSLIDPAEISIGQGIGVTPVQLIASLNIFANDGYWVKPTILKDSPVKKRRVFSKETTDVIRQAMVRVVEEGTGKLAQVKGIAIAGKTGTAQKAVGGEYRNLYHSLFVGFFPAEDPKYTILVHLDSPSGAFYGGEVAAPVFREIVEILTEKED | failed |
| MTNTLKTSYQKTPYKLGGNGPRNVGVLTEALQNIDDNLESDIYGNGAVIEDFETKIAKILGKQSAVFFPSGTMAQQIALRIWADRKENRRVAYHPLSHLEIHEQDGLKELQQITPLLLGTANQLLTIDDIKSLREPVSSVLIELPQREIGGQLPAFEELEKISEYCHEQGISLHLDGARLWEITPFYQKSAEEICALFDSVYVSFYKGIGGIAGAILAGNDDFVQEAKIWKRRYGGDLISLYPYILSADYYFEKRIGKMAEYFEAAKGLAERFNSCSGVKTVPEVPVSNMFHVYFENSADEIGAILTKIQDETGVGISGYLQEKSADVCAFEVSVGDAFAEIPAKNLELVFRCLEKEL | not failed |
| MTNFQRARSEEQRAVRRQAILDTTAAMLEEMPVGEVSLNELSRRVGLAKSNVLRYFESREAILLELLDRAWQQWVADLPALVHAGVDQGAPVSRRAEQFAAVIAASLAGRQVLCDLLSAQAGVLEHNVSPQVAARYKRAAVANVADIAALAHQHLPELGASAPQLTAVMIMAVGAVWTHARPSPAMLSAYEADPSLTAFKLDFVTTLQEMLATLTAGTIARESA | not failed |
| RHQPEINQTPGEAQALFVWRDNQDHRDDIERHYLKMLTSARREVIIANAYFFPGYRLLHAMRNAARRGVRVKLIVQGEPDIPIVKFGAHLLYHYLVKGGVQIYEYRRRPLHGKVALADDHWATVGSSNLDPLSLSLNLEANLIIHDRVFNQTLRDNLNGLIARDCQRIDKTMLPKRNWWRLGVSVMAFHFLRHFPAWVGWLP | failed |
| MVTSEGLASVDSWLYRQGFNVDSWLLSDTFSHDNDLLARALHTTVTAPHTLTPSSAFFDSSAVSHPSSTNTLSSTVSGASDPEIIGGGAKRKRNCLLTDGKAAKRRARASKKSQTTFITADPSNFRQMVQQVTGAKYIDDSSSFGIFDPIVKPEPLRFVNKLPCGPSDRSTAVPMLDTSAFLSNHHQENLAVGNAFSGNSSSVGLPSGKPSATADPGGSAVEFDNYPTFPTLESWKVM | failed |
| MAKLAGQKVRIGGWVKTGRQQGKGTFAFLEVNDGSCPANLQVMVDSSLYDLSRLVATGTCVTVDGVLKIPPEGKGLKQSIELSVETVIAVGTVDP | not failed |
| MKILVVSGFLGAGKTTFIRTLAERTKKDFAVMENEYGAVNVDGDLLEQTNDLNIWELTEGCICCSMQNDFATSILTIANTVDPEYLIVEPTGVGMLSKIIENIQKIEYERITLLEPLTILDGTMYDRCMFEFSEICEDQIQSAGRILVSKMEYAAENERCSLKQKLIALNPEAEICVSHYTEQGDDWWASLLTSYLDKEIPMKEERELDLENLGLTEASLQSEQELILFLQGVVSGVFGDICRAKGYLPAGNGWLRFDVTDRTYSVTGIDTMPEAKAIFIGRQLKRNWLREVLQKELYVEVSKRAIRPMRKRSEVLEHHHHHH | failed |
| MFVFMLLLLLPFTISKAKDFPANPIEKAGYKLDFSDEFNGPTLDREKWTDYYLPHWCKDPESAKANYRFENGSLVEYITEDQKPWCPEHDGTVRSSAIMSFDKSWIHNFSGTTDNHERNEWRGYTTKYGYFEIRAKLSNTGGGGHQAWWMVGMQDDTNDWFNSKQTGEIDILETFFSKKDTWRIAAYGWNDPNFQTSWTISEDKVPSGDPTSEYHIYAMEWTPTALKFYYDNELFKVIYGSPDYEMGTILNIYTDAGSGAHNDVWPKEWAIDYMRVWKPVDGYKESESLNNYLIRNRQTGKFLYIEENNDKVSYGDITLKNEKNAKWSKEYRDGYTLLKNNETGEYLNIENQTGYIEHGKVPKTWWSAQWSEVPVDGYTRFVNRWKPNMSIHTESYEGVLQYGNVPNTYWTSQWQLIPVE | not failed |
